# Experimental data reported in article PMC10232371, “Enhanced rare-earth separation with a metal-sensitive lanmodulin dimer” (Nature, 2023).
# B1: Hansschlegelia quercus lanmodulin (Hans-LanM), residues A24-K133 (natural protein)
# chain: ASGADALKALNKDNDDSLEIAEVIHAGATTFTAINPDGDTTLESGETKGRLTEKDWARANKDGDQTLEMDEWLKILRTRFKRADANKDGKLTAAELDSKAGQGVLVMIMK
# notes: lanmodulin (LanM) of Hansschlegelia quercus without its native 23-residue signal peptide; expressed with an N-terminal Met that is cleaved, so the first residue is A24; Metal-free (apo) or loaded with rare-earth(III) ions as named in each assay; expressed from pET-29b(+); also called wild-type Hans-LanM; source: E. coli, purified (SEC, dialysed against Chelex 100)
# Legend:
# [1] = target: Lanmodulin from Hansschlegelia quercus (Hans-LanM), wild type (Hansschlegelia quercus); assay: SEC; analytical size-exclusion chromatography of Hans-LanM in the presence of three equivalents of La(III)
# [2] = target: Lanmodulin from Hansschlegelia quercus (Hans-LanM), wild type (Hansschlegelia quercus); assay: ITC; dilutive additions of 300 uM apo protein into matched buffer (30 mM MOPS, 100 mM KCl, pH 7.0), 30 °C; Dimer Dissociation model; dimer to monomers
# [3] = target: Lanmodulin from Hansschlegelia quercus (Hans-LanM), wild type (Hansschlegelia quercus); assay: SEC-MALS; Hans-LanM pre-incubated with 3 equiv. La(III), Nd(III) or Gd(III); 1.2-1.5 mg/mL loaded; buffer B (30 mM MOPS, 100 mM KCl, 5% glycerol, pH 7.0)
# [4] = target: Lanmodulin from Hansschlegelia quercus (Hans-LanM), wild type (Hansschlegelia quercus); assay: ITC; dilutive additions of 300 uM protein with 2 equivalents of Dy(III) into matched buffer (30 mM MOPS, 100 mM KCl, pH 7.0), 30 °C; Dimer Dissociation model; dimer to monomers
# [5] = target: Lanmodulin from Hansschlegelia quercus (Hans-LanM), wild type (Hansschlegelia quercus); assay: ITC; dilutive additions of 150 uM or 540 uM protein with 2 equivalents of La(III) into matched buffer (30 mM MOPS, 100 mM KCl, pH 7.0), 30 °C; no change of heats seen, only an upper limit; dimer to monomers
# [6] = target: the molecule itself; assay: SEC; analytical Superdex 75 column (24 mL); protein metalated with 3.0 equiv. La(III)
# [7] = target: the molecule itself; assay: SEC; analytical Superdex 75 column (24 mL); apo protein (590 uM, 100 uL) metalated with 3.0 equiv. Nd(III)
# [8] = target: the molecule itself; assay: SAXS; La(III)-bound protein from SEC-MALS fractions, 1.5 mg/mL; 30 mM MOPS, 100 mM KCl, 5% glycerol, pH 7.0, 22 C; Porod volume, OLIGOMER and CRYSOL analyses
# [9] = target: the molecule itself; assay: SAXS; Nd(III)-bound protein from SEC-MALS fractions, 1.4 mg/mL; 30 mM MOPS, 100 mM KCl, 5% glycerol, pH 7.0, 22 C; Porod volume, OLIGOMER and CRYSOL analyses
Molecule,stoichiometry N [1],Kd [2] [µM],stoichiometry N [3],Kd [4] [µM],Kd [5] [µM],stoichiometry N [6],stoichiometry N [7],stoichiometry N [8],stoichiometry N [9]
"Lanmodulin from Hansschlegelia quercus (Hans-LanM), wild type (natural protein)",2,117,2,60,< 0.4,–,–,–,–
B1,–,–,–,–,–,2,2,2,2
